Data on two molecules can be found in paper PMC4345318, “Dynamic association of PfEMP1 and KAHRP in knobs mediates cytoadherence during Plasmodium invasion” (Scientific Reports, 2015).

Assay [1] addresses VARC (acidic terminal segment, cytoplasmic domain fragment of PfEMP1, comprising VARC A and VARC B). Description: ITC (GE MicroCal ITC200). The conditions noted are these: pH 6.9, 298 K, 0.013 M (no added salt), 10 mM sodium phosphate.
Assay [2] has as its target T1, VARC (cytoplasmic acidic terminal sequence domain of P. falciparum erythrocyte membrane protein-1, PfEMP1) (Plasmodium falciparum, UniProt Q8IAK2 2467-2757).
T1 construct: also called ATS; cytoplasmic domain of PfEMP1; source: E. coli BL21 (DE3) CodonPlus, purified (Ni-NTA, gel permeation chromatography on Superdex 75)
T1 sequence: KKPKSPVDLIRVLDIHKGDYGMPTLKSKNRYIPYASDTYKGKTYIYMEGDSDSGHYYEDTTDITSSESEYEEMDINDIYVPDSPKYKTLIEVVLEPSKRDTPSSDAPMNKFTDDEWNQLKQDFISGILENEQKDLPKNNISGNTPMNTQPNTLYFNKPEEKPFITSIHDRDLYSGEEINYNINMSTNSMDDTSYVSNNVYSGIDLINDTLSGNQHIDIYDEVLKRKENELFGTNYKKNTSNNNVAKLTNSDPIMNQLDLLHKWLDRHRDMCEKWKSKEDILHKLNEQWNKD
Description: NMR titration; 2D [15N,1H] HSQC of 10 μM 15N-labelled K2A1 with unlabelled VARC added at 1:1, 1:2.5, 1:5, 1:7.5 and 1:10 molar ratios; 278 K; 10 mM sodium phosphate pH 6.2, 5 mM DTT, no additional salt (ionic strength 0.013 M); Kd by fit of amide chemical shift perturbations; the 1:5 complex also measured at 20, 50, 100 and 150 mM NaCl. Particulars: both partners purified.

In assay [3] the target is T1, VARC (cytoplasmic acidic terminal …). Description: ITC; 0.7 mM K2A1 in the syringe, 0.07 mM VARC in the cell; 298 K; 10 mM sodium phosphate pH 6.9, 5 mM DTT, no additional salt; 40 injections of 1 μL; fitted to a sequential four site model, and to a simple hetero-association model (A + B <-> AB) in SEDPHAT for an apparent global Kd. The conditions noted are these: both partners purified. (In general: ITC needs no label: the signal is the heat of the interaction.)

In the case of “K2A1 (first tandem repeat of the K2A lysine-rich region of knob-associated histidine-rich protein, KAHRP)”, in assay [1], the “Kd (first value, four-site sequential model)” value worked out at 9.8 µM; the “Kd (fourth value, four-site sequential model)” value came to 9.6 µM; the “Kd (second value, four-site sequential model)” value worked out at 10.3 µM; the “Kd (third value, four-site sequential model)” value came to 10.1 µM.

B1: K2A1 (first of the two tandem repeats of the K2A region of knob associated histidine rich protein, KAHRP) (domain or fragment)
chain: KHHSSKKHEGNDGEGEKKKKSKKHKDHDGEKKKSKKHKDNEDAESVKSKK
notes: also called truncated K2A; source: E. coli BL21 (DE3) CodonPlus, purified (Ni-NTA, gel permeation chromatography on Superdex 75); not shown: His6, C-terminal, kept
On to B1, for which the Kd in assay [2] lay in the range of 7 to 15 µM. Besides, in assay [3], the Kd worked out at 32.1 µM, the “Kd of site 1 (four-site binding model)” value amounted to 9.8 µM, the “Kd of site 2 (four-site binding model)” value worked out at 10.3 µM and the “Kd of site 3 (four-site binding model)” value stood at 10.1 µM. Besides, in assay [3], the “Kd of site 4 (four-site binding model)” value came out at 9.6 µM.
